Measured values from US20230287402A1 (University of Washington, published 2023).

B1: A(d)mScarlet, dihedral A component with N-terminal mScarlet (A_n_mScarlet) (designed binder)
chain: NKIHGSHHHHHHGSTSGSAMVSKGEAVIKEFMRFKVHMEGSMNGHEFEIEGEGEGRPYEGTQTAKLKVTKGGPLPFSWDILSPQFMYGSRAFTKHPADIPDYYKQSFPEGFKWERVMNFEDGGAVTVTQDTSLEDGTLIYKVKLRGTNFPPDGPVMQKKTMGWEASTERLYPEDGVLKGDIKMALRLKDGGRYLADFKTTYKAKKPVQMPGAYNVDRKLDITSHNEDYTVVEQYERSEGRHSTGGMDELYKGGSGGSLALVATGNDTTTKPDLYYLKNSEAINSLALLPPPPAVGSIAFLNDQAMYEQGRLLRNTERGKLAAEDANLSSGGVANAFSGAFGSPITEKDAPALHKLLTNMIEDAGDLATRSAKDHYMRIRPFAFYGVSTCNTTEQDKLSKNGSYPSGHTSIGWATALVLAEINPQRQNEILKRGYELGQSRVICGYHWQSDVDAARVVGSAVVATLHTNPEFQAQLIKAKIEFKQHQK
notes: also called AmScarlet
B2: A component of design #13 (D3 homooligomer, designed from 1d2t) (designed binder)
chain: MGHHHHHHGGLALVATGNDTTTKPDLYYLKNSEAINSLALLPPPPAVGSIAFLNDQAMYEQGRLLRNTERGKLAAEDANLSSGGVANAFSGAFGSPITEKDAPALHKLLTNMIEDAGDLATRSAKDHYMRIRPFAFYGVSTCNTTEQDKLSKNGSYPSGHTSIGWATALVLAEINPQRQNEILKRGYELGQSRVICGYHWQSDVDAARVVGSAVVATLHTNPEFQAQLIKAKIEFKQHQKEL
notes: also called component A; dihedral A

Assays:
[1] = target: T1, B(c)GFP, cyclic B component with C-terminal GFP (Di13BLB_C_GFP); test: quantitative fluorescence microscopy of preformed arrays
[2] = target: T1, B(c)GFP, cyclic B component with …; test: calibrated microscope, corrected for FRET between GFP and mScarlet
[3] = target: T1, B(c)GFP, cyclic B component with …; test: stepwise array assembly on NIH/3T3 cells

Binder	mScarlet/GFP fluorescence ratio (arrays formed in vitro) [1]	A/B ratio of arrays generated on cells [2]	binding result [3]
B1	1.45	0.99	
B2			binds
